# Measurements reported in patent US20240228618A1 (Janssen / Centocor, published 2024).
# Target: human CD123 (human, UniProt P26951 19-378)
# Assay: cell-based or functional assay
# Sequence of human CD123 (P26951 19-378): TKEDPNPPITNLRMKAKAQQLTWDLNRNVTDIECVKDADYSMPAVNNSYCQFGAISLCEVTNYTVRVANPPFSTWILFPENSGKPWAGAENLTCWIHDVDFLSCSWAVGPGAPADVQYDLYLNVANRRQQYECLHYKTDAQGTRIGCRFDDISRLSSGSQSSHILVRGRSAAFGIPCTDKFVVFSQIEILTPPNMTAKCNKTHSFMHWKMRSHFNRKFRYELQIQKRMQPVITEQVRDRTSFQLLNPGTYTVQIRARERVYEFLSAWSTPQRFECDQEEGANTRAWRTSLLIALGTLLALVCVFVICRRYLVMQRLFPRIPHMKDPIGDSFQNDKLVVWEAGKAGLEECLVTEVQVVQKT
binder,measurement,value
"CD123×CD3 bispecific antibody (bispecific antibody, human IgG4 S228P, kappa, lambda, F234A L235A) heavy 1: not shown light 1: EIVLTQSPGTLSLSPGERATLSCRASQSVSSSYLAWYQQKPGQAPRLLIYGASSRATGIPDRFSGSGSGTDFTLTISRLEPEDFAVYYCQQDYGFPWTFGQGTKVEIKRTVAAPSVFIFPPSDEQLKSGTASVVCLLNNFYPREAKVQWKVDNALQSGNSQESVTEQDSKDSTYSLSSTLTLSKADYEKHKVYACEVTHQGLSSPVTKSFNRGEC heavy 2: EVQLVESGGGLVQPGGSLKLSCAASGFTFNTYAMNWVRQASGKGLEWVGRIRSKYNAYATYYAASVKGRFTISRDDSKNTAYLQMNSLKTEDTAVYYCTRHGNFGNSYVSWFAYWGQGTLVTVSSASTKGPSVFPLAPCSRSTSESTAALGCLVKDYFPEPVTVSWNSGALTSGVHTFPAVLQSSGLYSLSSVVTVPSSSLGTKTYTCNVDHKPSNTKVDKRVESKYGPPCPPCPAPEAAGGPSVFLFPPKPKDTLMISRTPEVTCVVVDVSQEDPEVQFNWYVDGVEVHNAKTKPREEQFNSTYRVVSVLTVLHQDWLNGKEYKCKVSNKGLPSSIEKTISKAKGQPREPQVYTLPPSQEEMTKNQVSLTCLVKGFYPSDIAVEWESNGQPENNYKTTPPVLDSDGSFLLYSKLTVDKSRWQEGNVFSCSVMHEALHNHYTQKSLSLSLGK light 2: QAVVTQEPSLTVSPGGTVTLTCRSSTGAVTTSNYANWVQQKPGQAPRGLIGGTNKRAPGTPARFSGSLLGGKAALTLSGAQPEDEAEYYCALWYSNLWVFGGGTKLTVLGQPKAAPSVTLFPPSSEELQANKATLVCLISDFYPGAVTVAWKADSSPVKAGVETTTPSKQSNNKYAASSYLSLTPEQWKSHRSYSCQVTHEGSTVEKTVAPTECS","EC50 of T cell-mediated cytotoxicity, target HL-60, HS-5 stroma, no anti-CD44, 48 h",0.142 nM
same,"EC50 of T cell-mediated cytotoxicity, target HL-60, HS-5 stroma, with anti-CD44, 48 h",0.0762 nM
same,"EC50 of T cell-mediated cytotoxicity, target HL-60, no stroma, no anti-CD44, 48 h",0.0868 nM
same,"EC50 of T cell-mediated cytotoxicity, target HL-60, no stroma, with anti-CD44, 48 h",0.0808 nM
same,"EC50 of T cell-mediated cytotoxicity, target KG-1, HS-5 stroma, no anti-CD44, 48 h",0.0319 nM
same,"EC50 of T cell-mediated cytotoxicity, target KG-1, HS-5 stroma, with anti-CD44, 48 h",0.0265 nM
same,"EC50 of T cell-mediated cytotoxicity, target KG-1, no stroma, no anti-CD44, 48 h",0.0028 nM
same,"EC50 of T cell-mediated cytotoxicity, target KG-1, no stroma, with anti-CD44, 48 h",0.0009 nM
same,"EC50 of T cell-mediated cytotoxicity, target MOLM-13, HS-5 stroma, no anti-CD44, 48 h",0.0262 nM
same,"EC50 of T cell-mediated cytotoxicity, target MOLM-13, HS-5 stroma, with anti-CD44, 48 h",0.153 nM
same,"EC50 of T cell-mediated cytotoxicity, target MOLM-13, no stroma, no anti-CD44, 48 h",0.0362 nM
same,"EC50 of T cell-mediated cytotoxicity, target MOLM-13, no stroma, with anti-CD44, 48 h",0.0125 nM
same,"EC50 of T cell-mediated cytotoxicity, target MV4-11, HS-5 stroma, no anti-CD44, 48 h",0.0057 nM
same,"EC50 of T cell-mediated cytotoxicity, target MV4-11, HS-5 stroma, with anti-CD44, 48 h",0.0025 nM
same,"EC50 of T cell-mediated cytotoxicity, target MV4-11, no stroma, no anti-CD44, 48 h",0.0056 nM
same,"EC50 of T cell-mediated cytotoxicity, target MV4-11, no stroma, with anti-CD44, 48 h",0.0026 nM
same,"EC50 of T cell-mediated cytotoxicity, target SKNO-1, HS-5 stroma, no anti-CD44, 48 h",0.0757 nM
same,"EC50 of T cell-mediated cytotoxicity, target SKNO-1, HS-5 stroma, with anti-CD44, 48 h",0.108 nM
same,"EC50 of T cell-mediated cytotoxicity, target SKNO-1, no stroma, no anti-CD44, 48 h",0.0111 nM
same,"EC50 of T cell-mediated cytotoxicity, target SKNO-1, no stroma, with anti-CD44, 48 h",0.0077 nM
